Our source for the self-cleavage values is the RNAGym collection of RNA variant scans (doi:10.1093/nar/gkz1192).

B1: CPEB3 Ribozyme (parent)
chain: UAACAGGGGGCCACAGCAGAAGCGUUCACGUCGCAGCCCCUGUCAGAUUCUGGUGAAUCUGCGAAUUCUGCUGUAUAUCUC

This data set covers variants of B1. Put plainly: self-cleavage, relative activity (ratio to wild type); higher = more cleavage; in vitro, sequencing. Put shortly: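 After error-prone PCR and barcoding, CPEB3 ribozyme mutant libraries were transcribed with T7 RNA polymerase at 37°C for 5 hours, then given 15 min with DNase I before an EDTA stop, and they cleaved during both steps. Reverse transcription with template switching preceded Illumina sequencing. Relative activity divides a variant's cleaved/total read fraction by the unmutated ribozyme's. At least 5 reads were required per variant, and three batches were averaged.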
In the case of UAACAGGGGGCCACAGCAGAAGCGUUCGCGUCGCAGCCCCUGACAGAUUCUGGUGAAUCUGCGAAUUCUGCUGUAUAUCUC [A28G U43A], the self-cleavage was 0.86.
Under UAACAGGGGGCCACAGCAGAAGCGUUCGCGUCGCAGCCCCUGCCAGAUUCUGGUGAAUCUGCGAAUUCUGCUGUAUAUCUC [A28G U43C] stands 0.35.
On to UAACAGGGGGCCACAGCAGAAGCGUUCGCGUCGCAGCCCCUGGCAGAUUCUGGUGAAUCUGCGAAUUCUGCUGUAUAUCUC [A28G U43G], for which the self-cleavage was 0.17.
Regarding UAACAGGGGGCCACAGCAGAAGCGUUCUCGUCGCAGCCCCUGUCUGAUUCUGGUGAAUCUGCGAAUUCUGCUGUAUAUCUC [A28U A45U], the self-cleavage is 0.4.
In the case of UAACAGGGGGCCACAGCAGAAGCGUUCUCGUCGCAGCCCCUGUCGGAUUCUGGUGAAUCUGCGAAUUCUGCUGUAUAUCUC [A28U A45G], the self-cleavage was 0.47.
In the case of UAACAGGGGGCCACAGCAGAAGCGUUCUCGUCGCAGCCCCUGUCCGAUUCUGGUGAAUCUGCGAAUUCUGCUGUAUAUCUC [A28U A45C], the self-cleavage came out at 0.25.
Under UAACAGGGGGCCACAGCAGAAGCGUUCUCGUCGCAGCCCCUGUCAGAUUCUGGUGUAUCUGCGAAUUCUGCUGUAUAUCUC [A28U A56U] stands 0.57; under UAACAGGGGGCCACAGCAGAAGCGUUCUCGUCGCAGCCCCUGUCAGAUUCUGGUGGAUCUGCGAAUUCUGCUGUAUAUCUC [A28U A56G], 0.53.
Consider UAACAGGGGGCCACAGCAGAAGCGUUCUCGUCGCCGCCCCUGUCAGAUUCUGGUGAAUCUGCGAAUUCUGCUGUAUAUCUC [A28U A35C], for which the self-cleavage came to 0.47.
The value for UAACAGGGGGCCACAGCAGAAGCGUUCUCGUCGCGGCCCCUGUCAGAUUCUGGUGAAUCUGCGAAUUCUGCUGUAUAUCUC [A28U A35G] was 1.22; that for UAACAGGGGGCCACAGCAGAAGCGUUCUCGUCGCUGCCCCUGUCAGAUUCUGGUGAAUCUGCGAAUUCUGCUGUAUAUCUC [A28U A35U] was 0.35.
Take UAACAGGGGGCCACAGCAGAAGCGUUCGCGUCGCAGCCCCUGUCAGAUUCAGGUGAAUCUGCGAAUUCUGCUGUAUAUCUC [A28G U51A]: the self-cleavage was determined as 0.63.
Regarding UAACAGGGGGCCACAGCAGAAGCGUUCGCGUCGCAGCCCCUGUCAGAUUCCGGUGAAUCUGCGAAUUCUGCUGUAUAUCUC [A28G U51C], the self-cleavage came out at 0.62.
For UAACAGGGGGCCACAGCAGAAGCGUUCGCGUCGCAGCCCCUGUCAGAUUCGGGUGAAUCUGCGAAUUCUGCUGUAUAUCUC [A28G U51G], the self-cleavage was 0.45.
In the case of UAACAGGGGGCCACAGCAGAAGCGUUCGCGUCGCAGCCCCUGUCAGAUUCUGGUGAAGCUGCGAAUUCUGCUGUAUAUCUC [A28G U58G], the self-cleavage came out at 0.46.
Turning to UAACAGGGGGCCACAGCAGAAGCGUUCGCGUCGCAGCCCCUGUCAGAUUCUGGUGAAACUGCGAAUUCUGCUGUAUAUCUC [A28G U58A], the self-cleavage was 0.24.
Take UAACAGGGGGCCACAGCAGAAGCGUUCGCGUCGCAGCCCCUGUCAGAUUCUGGUGAACCUGCGAAUUCUGCUGUAUAUCUC [A28G U58C]: the self-cleavage was determined as 0.27.
The value for UAACAGGGGGCCACAGCAGAAGCGUUCUCGUCGCAGCCCCUGUCAGAUUCUGGUGAAUCUGCGAAUUCUGCUGUAUAUCUC [A28U] was 0.81; that for UAACAGGGGGCCACAGCAGAAGCGUUCGCGUCGCAGCCCCUGUCAGAGUCUGGUGAAUCUGCGAAUUCUGCUGUAUAUCUC [A28G U48G] was 0.43; that for UAACAGGGGGCCACAGCAGAAGCGUUCGCGUCGCAGCCCCUGUCAGAAUCUGGUGAAUCUGCGAAUUCUGCUGUAUAUCUC [A28G U48A] was 0.26.
Regarding UAACAGGGGGCCACAGCAGAAGCGUUCGCGUCGCAGCCCCUGUCAGACUCUGGUGAAUCUGCGAAUUCUGCUGUAUAUCUC [A28G U48C], the self-cleavage was 0.29.
The value for UAACAGGGGGCCACAGCAGAAGCGUUCGCGACGCAGCCCCUGUCAGAUUCUGGUGAAUCUGCGAAUUCUGCUGUAUAUCUC [A28G U31A] was 0.33; that for UAACAGGGGGCCACAGCAGAAGCGUUCGCGCCGCAGCCCCUGUCAGAUUCUGGUGAAUCUGCGAAUUCUGCUGUAUAUCUC [A28G U31C] was 0.48; that for UAACAGGGGGCCACAGCAGAAGCGUUCGCGGCGCAGCCCCUGUCAGAUUCUGGUGAAUCUGCGAAUUCUGCUGUAUAUCUC [A28G U31G] was 0.25.
Under UAACAGGGGGCCACAGCAGAAGCGUUCGCGUCGCAGCCCCUGUCAGAUUCUGGUGAAUCUGCGAAUUCUGCUGUACAUCUC [A28G U76C] stands 0.67.
With UAACAGGGGGCCACAGCAGAAGCGUUCGCGUCGCAGCCCCUGUCAGAUUCUGGUGAAUCUGCGAAUUCUGCUGUAGAUCUC [A28G U76G], the self-cleavage was 0.56.
On to UAACAGGGGGCCACAGCAGAAGCGUUCGCGUCGCAGCCCCUGUCAGAUUCUGGUGAAUCUGCGAAUUCUGCUGUAAAUCUC [A28G U76A], for which the self-cleavage worked out at 0.61.
Under UAACAGGGGGCCACAGCAGAAGCGUUCGCGUCGCAGCCCCUGUCAGAUUCUGGUGAAUCUGCGAAUCCUGCUGUAUAUCUC [A28G U67C] stands 0.17; under UAACAGGGGGCCACAGCAGAAGCGUUCGCGUCGCAGCCCCUGUCAGAUUCUGGUGAAUCUGCGAAUGCUGCUGUAUAUCUC [A28G U67G], 0.17; under UAACAGGGGGCCACAGCAGAAGCGUUCGCGUCGCAGCCCCUGUCAGAUUCUGGUGAAUCUGCGAAUACUGCUGUAUAUCUC [A28G U67A], 0.27.
As for UAACAGGGGGCCACAGCAGAAGCGUUCGCGUCGCAGCCCCUGUCAGAUUCUGGUGAAUCUGCGAAUUCCGCUGUAUAUCUC [A28G U69C], the self-cleavage was determined as 0.25.
Under UAACAGGGGGCCACAGCAGAAGCGUUCGCGUCGCAGCCCCUGUCAGAUUCUGGUGAAUCUGCGAAUUCAGCUGUAUAUCUC [A28G U69A] stands 0.29; under UAACAGGGGGCCACAGCAGAAGCGUUCGCGUCGCAGCCCCUGUCAGAUUCUGGUGAAUCUGCGAAUUCGGCUGUAUAUCUC [A28G U69G], 0.48.
Turning to UAACAGGGGGCCACAGCAGAAGCGUUCGCGUCGCAGCCCCUGUCAGAUUCUGGUGAAUCUGCGAAUUCUGCUUUAUAUCUC [A28G G73U], the self-cleavage came out at 1.26.
